Target: T1, His-Flag-Smurf1 (UniProt Q9HCE7-2 1-731)
T1 construct: Smurf1; printed length 731 (HECT domain residues 374–731, catalytic C699); also called SMAD Specific E3 Ubiquitin Protein Ligase 1; source: E. coli, purified
Assay: pull-down; GST pull-down: GST fusion and His-tagged partner both purified from E. coli; 4 °C overnight, washed with PBS
Conditions: both partners purified

T1 sequence (Q9HCE7 other isoform, or with tags, fused parts or gaps): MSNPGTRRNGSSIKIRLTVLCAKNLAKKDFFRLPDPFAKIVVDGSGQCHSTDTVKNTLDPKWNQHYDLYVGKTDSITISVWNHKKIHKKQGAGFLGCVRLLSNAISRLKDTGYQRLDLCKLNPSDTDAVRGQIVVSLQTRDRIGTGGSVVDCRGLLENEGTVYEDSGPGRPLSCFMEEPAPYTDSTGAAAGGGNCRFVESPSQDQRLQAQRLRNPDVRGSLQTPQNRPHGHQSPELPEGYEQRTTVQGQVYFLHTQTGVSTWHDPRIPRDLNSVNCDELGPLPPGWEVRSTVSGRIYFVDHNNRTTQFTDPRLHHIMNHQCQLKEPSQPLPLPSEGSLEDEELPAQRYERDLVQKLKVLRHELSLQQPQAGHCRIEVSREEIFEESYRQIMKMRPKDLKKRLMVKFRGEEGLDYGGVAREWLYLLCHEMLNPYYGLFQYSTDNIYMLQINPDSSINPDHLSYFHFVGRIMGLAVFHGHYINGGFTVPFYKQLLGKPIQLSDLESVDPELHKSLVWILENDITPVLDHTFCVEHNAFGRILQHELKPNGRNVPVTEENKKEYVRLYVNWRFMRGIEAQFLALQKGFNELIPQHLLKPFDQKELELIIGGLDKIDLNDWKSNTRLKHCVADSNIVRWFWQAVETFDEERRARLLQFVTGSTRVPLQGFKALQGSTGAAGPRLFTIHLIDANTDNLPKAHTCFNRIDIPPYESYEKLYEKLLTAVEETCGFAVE

binding result	Binder
binds	GST-TFEB (natural protein, UniProt P19484 1-476, looked up, TFEB, transcription factor EB; source: E. coli, purified) MASRIGLRMQLMREQAQQEEQRERMQQQAVMHYMQQQQQQQQQQLGGPPTPAINTPVHFQSPPPVPGEVLKVQSYLENPTSYHLQQSQHQKVREYLSETYGNKFAAHISPAQGSPKPPPAASPGVRAGHVLSSSAGNSAPNSPMAMLHIGSNPERELDDVIDNIMRLDDVLGYINPEMQMPNTLPLSSSHLNVYSSDPQVTASLVGVTSSSCPADLTQKRELTDAESRALAKERQKKDNHNLIERRRRFNINDRIKELGMLIPKANDLDVRWNKGTILKASVDYIRRMQKDLQKSRELENHSRRLEMTNKQLWLRIQELEMQARVHGLPTTSPSGMNMAELAQQVVKQELPSEEGPGEALMLGAEVPDPEPLPALPPQAPLPLPTQPPSPFHHLDFSHSLSFGGREDEGPPGYPEPLAPGHGSPFPSLSKKDLDLMLLDDSLLPLASDPLLSTMSPEASKASSRRSSFSMEEGDVL
binds	GST-FLCN (natural protein, UniProt Q8NFG4 1-579, looked up, FLCN, folliculin; source: E. coli, purified) MNAIVALCHFCELHGPRTLFCTEVLHAPLPQGDGNEDSPGQGEQAEEEEGGIQMNSRMRAHSPAEGASVESSSPGPKKSDMCEGCRSLAAGHPGYISHDKETSIKYVSHQHPSHPQLFSIVRQACVRSLSCEVCPGREGPIFFGDEQHGFVFSHTFFIKDSLARGFQRWYSIITIMMDRIYLINSWPFLLGKVRGIIDELQGKALKVFEAEQFGCPQRAQRMNTAFTPFLHQRNGNAARSLTSLTSDDNLWACLHTSFAWLLKACGSRLTEKLLEGAPTEDTLVQMEKLADLEEESESWDNSEAEEEEKAPVLPESTEGRELTQGPAESSSLSGCGSWQPRKLPVFKSLRHMRQVLGAPSFRMLAWHVLMGNQVIWKSRDVDLVQSAFEVLRTMLPVGCVRIIPYSSQYEEAYRCNFLGLSPHVQIPPHVLSSEFAVIVEVHAAARSTLHPVGCEDDQSLSKYEFVVTSGSPVAADRVGPTILNKIEAALTNQNLSVDVVDQCLVCLKEEWMNKVKVLFKFTKVDSRPKEDTQKLLSILGASEEDNVKLLKFWMTGLSKTYKSHLMSTVRSPTASESRN
